The numbers were not newly measured in patent publication US20260108469A1, “COMPOSITIONS COMPRISING WATER INSOLUBLE DRUGS AND METHODS OF PRODUCING AND USING SAME” (priority 2023, published 2026), which cites them from elsewhere.

Where only a bound is given, the exact number is not on record here.

Consider “CVKRGLKLRHVRPRVTRMDV (cell penetrating peptide (CPP)) [20 amino acid cell penetrating peptide, DPV1047 with an added N-terminal Cys]”, for which the solubility in water (water) is on record as greater than 500 mg/mL. For `CCc1c2c(nc3ccc(O)cc13)-c1cc3c(c(=O)n1C2)COC(=O)[C@]3(O)CC` [SN-38, 7-ethyl-10-hydroxycamptothecin], the “solubility in water-based solutions” value is reported as “not soluble in water-based solutions”.
